This is an account of results in paper PMC9889962 (Antibody Therapeutics, 2023).

For test [1], the target named is SARS-CoV-2 Alpha variant B.1.1.7, S1 subunit (SARS-CoV-2). The test can be described thus: SPR. The settings on record: both partners purified.
For test [2], the target named is SARS-CoV-2 Omicron B.1.1.529 RBD only (SARS-CoV-2, UniProt P0DTC2). The test can be described thus: SPR. The settings on record: both partners purified.

B1: LiVE-Longer YTE chimera (ACE-2 LVE/STR-YTE fusion protein) (Fc fusion)
chain: QSTIEEQAKLFLDKFNVEAEDLFYQSSLASWNYNTNITEENVQNMNNAGDKWSAFLKEQSTLAQMYPLQEIQELTVKLQLQALQQNGSSVLSEDKSKRLNTILNTMSTIYSTGKVCNPDNPQECLLLEPGLNEIMANSLDYNERLWAWESWRSEVGKQLRPLYEEYVVLKNEMARANHYEDYGDYWRGDYEVNGVDGYDYSRGQLIEDVEHTFEEIKPLYEHLHAYVRAKLMNAYPSYISPIGCLPAHLLGDMWGRFWTNLYSLTVPFGQKPNIDVTDAMVDQAWDAQRIFKEAEKFFVSVGLPNMTQGFWENSMLTDPGNVQKAVCHPTAWDLGKGDFRILMCTKVTMDDFLTAHHEMGHIQYDMAYAAQPFLLRNGANEGFHEAVGEIMSLSAATPKHLKSIGLLSPDFQEDNETEINFLLKQALTIVGTLPFTYMLEKWRWMVFKGEIPKDQWMKKWWEMKREIVGVVEPVPHDETYCDPASLFHVSNDYSFIRYYTRTLYQFQFQEALCQAAKHEGPLHKCDISNSTEAGQKLFNMLRLGKSEPWTLALENVVGAKNMNVRPLLNYFEPLFTWLKDQNKNSFVGWSTDWSPYADQSIKVRISLKSALGDKAYEWNDNEMYLFRSSVAYAMRQYFLKVKNQMILFGEEDVRVANLKPRISFNFFVTAPKNVSDIIPRTEVEKAIRMSRSRINDAFRLNDNSLEFLGIQPTLGPPNQPPVS
For orientation: Kd means the free concentration of one partner at which half of the binding sites on the other are occupied at equilibrium, for simple one-to-one binding. A higher Kd goes with lower affinity. Turning to B1, the figures for the Kd in test [1] and in test [2] were 0.093 nM and 0.402 nM, respectively.
